Laboratory results taken from US7135170B2 (ZymoGenetics, Inc., priority 2002, dated 2006).

T1: zcyto20 (Homo sapiens, UniProt Q8IZJ0)
T1 sequence (Q8IZJ0 26-200): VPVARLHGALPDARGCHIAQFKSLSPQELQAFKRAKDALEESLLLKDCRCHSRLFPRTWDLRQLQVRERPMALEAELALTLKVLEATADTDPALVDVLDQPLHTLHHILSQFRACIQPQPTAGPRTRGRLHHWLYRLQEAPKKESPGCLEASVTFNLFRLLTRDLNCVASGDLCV

T2: zcyto24 (Mus musculus, UniProt Q4VK74)
T2 construct: The mature polypeptide comprises amino acid residue 29 (Asp) to amino acid residue 202 (Val)
T2 sequence (Q4VK74 20-193): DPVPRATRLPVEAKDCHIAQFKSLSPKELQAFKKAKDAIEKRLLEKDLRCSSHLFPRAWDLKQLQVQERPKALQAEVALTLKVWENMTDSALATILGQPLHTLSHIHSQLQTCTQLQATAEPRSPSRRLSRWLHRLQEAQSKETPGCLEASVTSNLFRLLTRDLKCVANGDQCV

B1: Huzcytor19-Fc: human zcytor19-Fc homodimeric soluble receptor (protein)
chain: RPRLAPPQNVTLLSQNFSVYLTWLPGLGNPQDVTYFVAYQSSPTRRRWREVEECAGTKELLCSMMCLKKQDLYNKFKGRVRTVSPSSKSPWVESEYLDYLFEVEPAPPVLVLTQTEEILSANATYQLPPCMPPLDLKYEVAFWKEGAGNKTLFPVTPHGQPVQITLQPAASEHHCLSARTIYTFSVPKYSKFSKPTCFLLEVPEAN
modifications: left off: a dimerising Fc or GST
notes: human zcytor19-Fc homodimeric soluble receptor
B2: Muzcytor19-Ig: murine zcytor19-Ig homodimeric soluble receptor (protein)
chain: RPRLAPPRNVTLFSQNFTVYLTWLPGLGSPPNVTYFVTYQSYIKTGWRPVEHCAGIKALVCPLMCLKKLNLYSKFKGRVQAASAHGRSPRVESRYLEYLFDVELAPPTLVLTQMEKILRVNATYQLPPCMPSLELKYQVEFWKEGLGSKTLFPDTPYGQPVQIPLQQGASRRHCLSARTVYTLIDIKYSQFSEPSCIFLEAPGDKRA
modifications: left off: small tags and cut ends
notes: murine zcytor19-Ig homodimeric soluble receptor
B3: MetIL-29-PEG: E. coli derived IL-29 with N-terminal Met, conjugated to PEG (conjugate, UniProt Q8IU54 20-200, looked up)
Interferon lambda-1: GPVPTSKPTTTGKGCHIGRFKSLSPQELASFKKARDALEESLKLKNWSCSSPVFPGNWDLRLLQVRERPVALEAELALTLKVLEAAAGPALEDVLDQPLHTLHHILSQLQACIQPQPTAGPRPRGRLHHWLHRLQEAPKKESAGCLEASVTFNLFRLLTRDLKYVADGNLCLRTSTHPEST
modifications: N-terminal Met; PEG
notes: E. coli derived IL-29 with N-terminal Met, conjugated to PEG

Experiments:
[1] = target: T1, zcyto20; test: Soluble receptor inhibition of ligand-induced ISRE signaling, 293 HEK cells overexpressing zcytor19: zcyto20; format: cell-based; conditions: for Percent Inhibition of Ligand-induced ISRE Signaling by Soluble Receptors: ligand Zcyto20 10 ng/ml, soluble receptor 10 micrograms/ml, 4-hour; for inhibition of zcyto20, zcyto21 and zcyto24-induced signaling: text summary over the three ligands
Source text: (§1) A signal transduction reporter assay can be used to show the inhibitor properties of zcytor19-Fc4 homodimeric and zcytor19-Fc/CRF2-4-Fc heterodimeric soluble receptors on zcyto20, zcyto21and zcyto24 signaling. Human embryonal kidney (HEK) cells overexpressing the zcytor19 receptor are transfected with a reporter plasmid containing an interferon-stimulated response element (ISRE) driving transcription of a luciferase reporter gene. Luciferase activity following stimulation of transfected cells with ligands (including zcyto20 (SEQ ID NO:18), zcyto21 (SEQ ID NO:20), zcyto24 (SEQ ID NO:8)) reflects the interaction of the ligand with soluble receptor.
(§2) 293 HEK cells overexpressing zcytor19 were transfected as follows: 700,000 293 cells/well (6 well plates) were plated approximately 18 h prior to transfection in 2 milliliters DMEM+10% fetal bovine serum. Per well, 1 microgram pISRE-Luciferase DNA (Stratagene) and 1 microgram pIRES2-EGFP DNA (Clontech,) were added to 6 microliters Fugene 6 reagent (Roche Biochemicals) in a total of 100 microliters DMEM. This transfection mix was added 30 minutes later to the pre-plated 293 cells. Twenty-four hours later the transfected cells were removed from the plate using trypsin-EDTA and replated at approximately 25,000 cells/well in 96 well microtiter plates. Approximately 18 h prior to ligand stimulation, media was changed to DMEM+0.5% FBS.
(§3) The signal transduction reporter assays were done as follows: Following an 18 h incubation at 37° C. in DMEM+0.5% FBS, transfected cells were stimulated with 10 ng/ml zcyto20, zcyto2l or zcyto24 and 10 micrograms/ml of the following soluble receptors; human zcytor19-Fc homodimer, human zcytor19-Fc/human CRF2-4-Fc heterodimer, human CRF2-4-Fc homodimer, murine zcytor19-Ig homodimer. Following a 4-hour incubation at 37° C., the cells were lysed, and the relative light units (RLU) were measured on a luminometer after addition of a luciferase substrate. The results obtained are shown as the percent inhibition of ligand-induced signaling in the presence of soluble receptor relative to the signaling in the presence of PBS alone.

[2] = target: zcyto21 (Homo sapiens, UniProt Q8IU54); test: Soluble receptor inhibition of ligand-induced ISRE signaling, 293 HEK cells overexpressing zcytor19: zcyto21; format: cell-based; conditions: ligand Zcyto21 10 ng/ml; soluble receptor 10 micrograms/ml; 4-hour
Source text: as §1, §2, §3

[3] = target: T2, zcyto24; test: Soluble receptor inhibition of ligand-induced ISRE signaling, 293 HEK cells overexpressing zcytor19: zcyto24; format: cell-based; conditions: ligand Zcyto24 10 ng/ml; soluble receptor 10 micrograms/ml; 4-hour
Source text: as §1, §2, §3

[4] = system: ISG gene expression (OAS, Pkr, Mx1) in liver, spleen and blood; test: ISG gene expression in liver, spleen and blood of injected mice (real-time PCR); format: in vivo, mouse; conditions: liver, 100 μg i.v.; for PKR: mice (Naive 3.70); for OAS: mice (Naive 6.60); for Mx1: mice (Naive 10.98)
Method: Mice were sacrificed at various time points (1 hr-48 hr). Spleens and livers were isolated from mice, and RNA was isolated. RNA was also isolated from the blood cells. The cells were pelleted and RNA isolated from pellets using RNAEasy®-kit (Qiagen). RNA was treated with DNase (Amicon) to rid RNA of any contaminating DNA. cDNA was generated using Perkin-Elmer RT mix (Perkin-Elmer). ISG gene induction was measured by real-time PCR using primers and probes specific for mouse OAS, Pkr and Mx1. To obtain quantitative data, HPRT real-time PCR was duplexed with ISG PCR. A standard curve was calculated using known amounts of IFN-stimulated mouse PBLs. All data are shown as expression relative to internal HPRT expression.
Results shown are fold expression relative to HPRT gene expression. […] The data shown is the average expression from 5 different animals/group.
Mice were injected with 100 μg of proteins i.v. Data shown is fold expression over HPRT expression from livers of mice. Similar data was obtained from blood and spleens of mice.

Row | Molecule | Percent Inhibition of Ligand-induced ISRE Signaling by Soluble Receptors [1] [%] | Percent Inhibition of Ligand-induced ISRE Signaling by Soluble Receptors [2] [%] | Percent Inhibition of Ligand-induced ISRE Signaling by Soluble Receptors [3] [%] | inhibition of zcyto20, zcyto21 and zcyto24-induced signaling [1] | also measured
1 | Huzcytor19-Fc/huCRF2-4-Fc: human zcytor19-Fc/human CRF2-4-Fc heterodimeric soluble receptor | 16 | 16 | 47 | – | –
2 | HuCRF2-4-Fc: human CRF2-4-Fc homodimeric soluble receptor | 80 | 79 | 82 | No significant effects | –
3 | B1 | 92 | 45 | 90 | – | –
4 | B2 | 91 | 103 | 89 | No significant effects | –
5 | B3 | – | – | – | – | PKR ([4]; 3 hr): 18.24 fold expression over HPRT expression; OAS ([4]; 3 hr): 91.29 fold expression over HPRT expression; Mx1 ([4]; 3 hr): 537.51 fold expression over HPRT expression; PKR ([4]; 6 hr): 13.93 fold expression over HPRT expression; OAS ([4]; 6 hr): 65.93 fold expression over HPRT expression; Mx1 ([4]; 6 hr): 124.99 fold expression over HPRT expression; PKR ([4]; 12 hr): 4.99 fold expression over HPRT expression; OAS ([4]; 12 hr): 54.04 fold expression over HPRT expression; Mx1 ([4]; 12 hr): 33.58 fold expression over HPRT expression; PKR ([4]; 24 hr): 3.77 fold expression over HPRT expression; OAS ([4]; 24 hr): 20.81 fold expression over HPRT expression; Mx1 ([4]; 24 hr): 35.82 fold expression over HPRT expression
